Read-outs that look alike come from different tables or passages of the source. No end group written: not given here.

In assay [1] the target is T1, ACE (Homo sapiens, UniProt P12821).
T1 construct: purchased Sigma-Aldrich
As to conditions: cited from earlier work. The source says:
Recently, several ACEI peptides have been identified and evaluated in brewed wine. Wu et al. discovered a polypeptide in Chinese Baijiu for the first time, which indicated an ACE inhibitory effect with an IC50 of […] [11]. […] Beer is one of the most globally cons ... || In this study, peptides in stout beer were identified using UPLC-Q-Orbitrap-MS^2, and a total of 41 peptides with ALC ≥ 85% were selected (Table 1). The peptides PMAPLPRSGPE and […] from Italian beer, LPQQQAQFK, STEWHLD, PPPVHD, LVLPGELAK, LAVMQQQQQQ, PPPVHDTD, PPVPHDTD, LPEDAKVE, HAVSEGTKAVT, LPGELAK, PMAPLPRSGEP, TVSGF, LNFDPNR, LALDTRVG, LDTRVGV, and RVALVY from draft beer, which were previously identified, also appeared in our results. The polypeptides present in beer primarily originate from malt protein. Previous studies have shown that the soluble protein content in m ...

In assay [2] the target is T1, ACE. The assay is described as follows: ACEI activity in vitro (ACE activity assay kit). In kind it is biochemical. As to conditions: 10 μL ACE + 40 μL inhibitor + 50 μL substrate, fluorescence ex 320 nm/em 405 nm, 37 °C, 30 min, synthesized peptide, triplicate, mean ± SD. The protocol:
ACEI activity determination was determined using an assay kit. Briefly, 10 μL of ACE and 40 μL of the inhibitor were added to the microplate and mixed thoroughly, then 50 μL of the substrate was added to start the reaction. The fluorescence was detected at an excitation wavelength of 320 nm and an emission wavelength of 405 nm at 37 °C for 30 min. The ACE activity of the peptide was calculated as follows:ACEI activity = [(KStd − KSample)/KStd] × DF × 100% where KSample means the slope of the sample curve after subtracting the blank. (RFU/min); KStd means the slope of the standard curve after subtracting the blank (RFU/min); DF means the dilution factor.
Each experiment was conducted in triplicate, the data were presented as mean ± standard deviation. SYBYL-X 2.1.1 software was utilized for evaluating the molecular docking visualization. LigPlot 1.4.5 software was employed to illustrate the 2D interactions. MD simulation data analysis was performed using GROMACS 2022.3 software.

Setting [3] is: peptides identified from Qingke Baijiu.
The mark [4] stands for this setting: known ACEI peptides in BIOPEP/AHTPDB.

T1 sequence (P12821 30-1306, species assumed): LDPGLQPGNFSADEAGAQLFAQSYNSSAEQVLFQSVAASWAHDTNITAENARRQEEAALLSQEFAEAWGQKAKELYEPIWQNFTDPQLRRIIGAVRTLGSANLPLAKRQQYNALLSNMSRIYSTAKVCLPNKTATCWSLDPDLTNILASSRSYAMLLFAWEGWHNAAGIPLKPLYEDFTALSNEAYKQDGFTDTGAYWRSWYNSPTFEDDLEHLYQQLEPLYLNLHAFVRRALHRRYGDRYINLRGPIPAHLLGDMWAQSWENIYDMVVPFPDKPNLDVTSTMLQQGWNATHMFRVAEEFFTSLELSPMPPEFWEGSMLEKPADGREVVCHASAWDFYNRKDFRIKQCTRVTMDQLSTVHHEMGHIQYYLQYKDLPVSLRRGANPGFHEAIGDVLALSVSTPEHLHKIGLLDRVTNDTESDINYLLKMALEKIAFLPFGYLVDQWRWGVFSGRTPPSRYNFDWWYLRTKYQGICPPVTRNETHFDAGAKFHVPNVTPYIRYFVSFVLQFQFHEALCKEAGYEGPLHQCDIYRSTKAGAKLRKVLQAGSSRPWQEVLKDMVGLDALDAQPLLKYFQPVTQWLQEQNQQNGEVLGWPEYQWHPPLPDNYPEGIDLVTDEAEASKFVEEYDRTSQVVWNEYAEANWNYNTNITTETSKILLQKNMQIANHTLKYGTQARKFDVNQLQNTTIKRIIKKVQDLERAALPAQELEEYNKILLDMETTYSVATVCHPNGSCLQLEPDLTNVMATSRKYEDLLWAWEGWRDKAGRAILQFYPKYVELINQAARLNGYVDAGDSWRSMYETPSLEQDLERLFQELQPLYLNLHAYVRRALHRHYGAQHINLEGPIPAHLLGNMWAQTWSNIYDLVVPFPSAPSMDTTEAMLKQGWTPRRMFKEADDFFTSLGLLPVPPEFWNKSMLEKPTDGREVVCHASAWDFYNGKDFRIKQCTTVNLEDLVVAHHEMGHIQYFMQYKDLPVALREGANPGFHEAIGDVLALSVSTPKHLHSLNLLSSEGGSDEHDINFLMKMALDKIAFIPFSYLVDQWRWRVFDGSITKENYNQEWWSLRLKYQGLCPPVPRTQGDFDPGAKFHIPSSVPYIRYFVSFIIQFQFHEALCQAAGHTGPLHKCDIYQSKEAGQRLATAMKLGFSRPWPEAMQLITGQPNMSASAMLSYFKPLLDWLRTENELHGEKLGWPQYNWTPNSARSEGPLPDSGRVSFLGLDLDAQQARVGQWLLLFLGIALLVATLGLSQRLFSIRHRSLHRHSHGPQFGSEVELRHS

A word on the IC50: it is the midpoint of a concentration-inhibition curve. On to “FPLQPHQP [peptide from Qingke Baijiu, reference compound]”, for which, in assay [1] (setting [3]), the IC50 was 5.03 µM.
For “LNFDPNR [peptide of stout beer; already known ACEI peptide]”, the IC50 in assay [1] (setting [4]) was 38.6 µM.
With “LPVGP [peptide from Qingke Baijiu, reference compound]”, the IC50 in assay [1] (setting [3]) is 9.05 µM.
Take “LPQQQAQFK [peptide of stout beer; already known ACEI peptide]”: the IC50 in assay [1] (setting [4]) is 26.4 µM.
Turning to DLGGFFGFQR [DLGGFFGFQR], in assay [2], the IC50 amounted to 24.5 µM.

Values taken from publication PMC11241375, “In Silico Screening of Bioactive Peptides in Stout Beer and Analysis of ACE Inhibitory Activity” (Foods, 2024).
